Laboratory results from patent US20120039802A1 (published 2012).

The binders below were run against T1, cMet-Fc fusion protein (extracellular domain of the cMet receptor expressed as an Fc-fusion protein) (human, UniProt P08581 25-932) (assay: phage ELISA on cMet-Fc, competitor HGF 500 ng/mL).
T1 construct: extracellular domain; also called soluble cMet-Fc-fusion protein; soluble cMet receptor; not shown: Fc part
T1 sequence (P08581 25-932): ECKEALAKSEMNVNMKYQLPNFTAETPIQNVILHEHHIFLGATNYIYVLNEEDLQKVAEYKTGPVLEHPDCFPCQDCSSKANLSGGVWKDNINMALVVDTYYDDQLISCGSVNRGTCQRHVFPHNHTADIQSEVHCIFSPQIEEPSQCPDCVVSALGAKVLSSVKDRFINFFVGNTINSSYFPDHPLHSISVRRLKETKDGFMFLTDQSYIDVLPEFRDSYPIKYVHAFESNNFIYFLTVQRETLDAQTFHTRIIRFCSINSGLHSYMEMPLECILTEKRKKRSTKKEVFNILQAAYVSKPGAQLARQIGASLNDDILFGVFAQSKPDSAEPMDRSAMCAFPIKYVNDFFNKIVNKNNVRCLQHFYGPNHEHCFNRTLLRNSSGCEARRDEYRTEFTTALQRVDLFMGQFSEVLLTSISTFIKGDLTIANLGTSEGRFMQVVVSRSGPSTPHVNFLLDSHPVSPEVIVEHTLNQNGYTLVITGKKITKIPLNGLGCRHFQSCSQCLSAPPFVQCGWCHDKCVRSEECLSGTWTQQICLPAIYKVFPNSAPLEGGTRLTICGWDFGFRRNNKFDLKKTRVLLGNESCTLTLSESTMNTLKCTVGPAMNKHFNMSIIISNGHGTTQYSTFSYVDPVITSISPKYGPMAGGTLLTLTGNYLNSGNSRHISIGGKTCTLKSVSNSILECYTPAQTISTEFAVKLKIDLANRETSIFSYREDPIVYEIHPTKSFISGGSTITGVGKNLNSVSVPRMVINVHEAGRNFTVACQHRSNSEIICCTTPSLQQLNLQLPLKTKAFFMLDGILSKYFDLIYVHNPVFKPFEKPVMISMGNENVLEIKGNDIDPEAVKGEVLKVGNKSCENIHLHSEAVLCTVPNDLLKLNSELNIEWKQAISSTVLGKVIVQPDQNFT
Description: (§1) These assays were conducted using the peptide-displaying phage discovered from the initial selection and screening campaigns using the first generation peptide libraries. Briefly, 96-well plates were coated overnight at 4 C with 0.5 μg/mL of cMet-Fc fusion protein or TRAIL-Fc fusion protein (background). The plates were blocked for 2 hours at 37 C with 3% BSA in PBST. […] This was followed by an addition of 30 μL of peptide-displaying phage overnight culture to each well. The plates were incubated for 2 hours at room temperature, washed with PBST and cMet-binding peptide-displaying phage was detected using an HRP-conjugated anti-M13 antibody.
With AGWTWCDLSMMSCIFHGT [573-E07 peptide-displaying phage (SEQ ID NO: 025)] the “% of binding in the absence of HGF” value was 82%. In the case of AGFWDCGWMMQDCHMHGT [470-C02 peptide-displaying phage (SEQ ID NO: 045)], the “% of binding in the absence of HGF” value is reported as 227%. For AGSIQCKGPPWFSCAMYGT [325-H05 peptide-displaying phage (SEQ ID NO: 048)], the “% of binding in the absence of HGF” value was 32%. AGHFECPKHQYMCDMPGT [465-D04 peptide-displaying phage (SEQ ID NO: 042)] was tested, and the “% of binding in the absence of HGF” value was 31%. For GSSHLCNPEFCHFTAP [465-D09 peptide-displaying phage (SEQ ID NO: 003)], the “% of binding in the absence of HGF” value was 70%. With AGMDFCEGFWFLCIGNAT [571-C11 peptide-displaying phage (SEQ ID NO: 035)] the “% of binding in the absence of HGF” value was 72%. GDGFLCRWENGWCEFWDP [545-E08 peptide-displaying phage (SEQ ID NO: 047)] was tested, and the “% of binding in the absence of HGF” value was 57%. For GSLIFCPYGECMMYAP [470-E11 peptide-displaying phage (SEQ ID NO: 005)], the “% of binding in the absence of HGF” value was 127%. For AGPYSCHSESHDCKLMGT [465-C01 peptide-displaying phage (SEQ ID NO: 032)], the “% of binding in the absence of HGF” value was 23%. With AGNLPCHWNMSVCDHQGT [465-D01 peptide-displaying phage (SEQ ID NO: 034)] the “% of binding in the absence of HGF” value was 134%. For AGIWFCNNEEKSCWAYGT [471-A11 peptide-displaying phage (SEQ ID NO: 040)], the “% of binding in the absence of HGF” value was 80%. With AGETVCYWLNGWFCVDDGT [274-B07 peptide-displaying phage (SEQ ID NO: 073)] the “% of binding in the absence of HGF” value was 296%. AGQAVCEWGPFWCQMQGT [470-A02 peptide-displaying phage (SEQ ID NO: 031)] was tested, and the “% of binding in the absence of HGF” value was 62%. AGLLGCWDMPMECTGEGT [465-B11 peptide-displaying phage (SEQ ID NO: 036)] was tested, and the “% of binding in the absence of HGF” value was 89%. For AGKYMCEGFEWFCEMWGT [442-E08 peptide-displaying phage (SEQ ID NO: 037)], the “% of binding in the absence of HGF” value was 75%. In the case of AGKTVCQKWESVCSGMGT [465-C11 peptide-displaying phage (SEQ ID NO: 038)], the “% of binding in the absence of HGF” value is reported as 4%.

What follows are binders tested against T1, cMet-Fc fusion protein (extracellular …) (assay: phage ELISA on cMet-Fc, competitor HGF 100 ng/mL).
Description: as §1
With AGWTWCDLSMMSCIFHGT [573-E07 peptide-displaying phage (SEQ ID NO: 025)] the “% of binding in the absence of HGF” value was 77%. In the case of AGFWDCGWMMQDCHMHGT [470-C02 peptide-displaying phage (SEQ ID NO: 045)], the “% of binding in the absence of HGF” value is reported as 340%. For AGSIQCKGPPWFSCAMYGT [325-H05 peptide-displaying phage (SEQ ID NO: 048)], the “% of binding in the absence of HGF” value was 41%. AGHFECPKHQYMCDMPGT [465-D04 peptide-displaying phage (SEQ ID NO: 042)] was tested, and the “% of binding in the absence of HGF” value was 77%. In the case of GSSHLCNPEFCHFTAP [465-D09 peptide-displaying phage (SEQ ID NO: 003)], the “% of binding in the absence of HGF” value is reported as 90%. With AGMDFCEGFWFLCIGNAT [571-C11 peptide-displaying phage (SEQ ID NO: 035)] the “% of binding in the absence of HGF” value was 107%. GDGFLCRWENGWCEFWDP [545-E08 peptide-displaying phage (SEQ ID NO: 047)] was tested, and the “% of binding in the absence of HGF” value was 81%. GSLIFCPYGECMMYAP [470-E11 peptide-displaying phage (SEQ ID NO: 005)] was tested, and the “% of binding in the absence of HGF” value was 55%. With AGPYSCHSESHDCKLMGT [465-C01 peptide-displaying phage (SEQ ID NO: 032)] the “% of binding in the absence of HGF” value was 267%. In the case of AGNLPCHWNMSVCDHQGT [465-D01 peptide-displaying phage (SEQ ID NO: 034)], the “% of binding in the absence of HGF” value is reported as 235%. With AGIWFCNNEEKSCWAYGT [471-A11 peptide-displaying phage (SEQ ID NO: 040)] the “% of binding in the absence of HGF” value was 85%. With AGQAVCEWGPFWCQMQGT [470-A02 peptide-displaying phage (SEQ ID NO: 031)] the “% of binding in the absence of HGF” value was 78%. For AGLLGCWDMPMECTGEGT [465-B11 peptide-displaying phage (SEQ ID NO: 036)], the “% of binding in the absence of HGF” value was 97%. For AGKYMCEGFEWFCEMWGT [442-E08 peptide-displaying phage (SEQ ID NO: 037)], the “% of binding in the absence of HGF” value was 81%. With AGKTVCQKWESVCSGMGT [465-C11 peptide-displaying phage (SEQ ID NO: 038)] the “% of binding in the absence of HGF” value was 41%.

The binders below were run against T2, human cMet expressed on 3T3 cells (human, UniProt P08581 25-1390) (assay: whole cell phage ELISA, 3T3 human cMet vs 3T3).
T2 construct: whole, on cells; cells fixed with glutaraldehyde; also called cell surface-expressed human cMet; 3T3 cells that over-express human cMet
T2 sequence (P08581 25-1390): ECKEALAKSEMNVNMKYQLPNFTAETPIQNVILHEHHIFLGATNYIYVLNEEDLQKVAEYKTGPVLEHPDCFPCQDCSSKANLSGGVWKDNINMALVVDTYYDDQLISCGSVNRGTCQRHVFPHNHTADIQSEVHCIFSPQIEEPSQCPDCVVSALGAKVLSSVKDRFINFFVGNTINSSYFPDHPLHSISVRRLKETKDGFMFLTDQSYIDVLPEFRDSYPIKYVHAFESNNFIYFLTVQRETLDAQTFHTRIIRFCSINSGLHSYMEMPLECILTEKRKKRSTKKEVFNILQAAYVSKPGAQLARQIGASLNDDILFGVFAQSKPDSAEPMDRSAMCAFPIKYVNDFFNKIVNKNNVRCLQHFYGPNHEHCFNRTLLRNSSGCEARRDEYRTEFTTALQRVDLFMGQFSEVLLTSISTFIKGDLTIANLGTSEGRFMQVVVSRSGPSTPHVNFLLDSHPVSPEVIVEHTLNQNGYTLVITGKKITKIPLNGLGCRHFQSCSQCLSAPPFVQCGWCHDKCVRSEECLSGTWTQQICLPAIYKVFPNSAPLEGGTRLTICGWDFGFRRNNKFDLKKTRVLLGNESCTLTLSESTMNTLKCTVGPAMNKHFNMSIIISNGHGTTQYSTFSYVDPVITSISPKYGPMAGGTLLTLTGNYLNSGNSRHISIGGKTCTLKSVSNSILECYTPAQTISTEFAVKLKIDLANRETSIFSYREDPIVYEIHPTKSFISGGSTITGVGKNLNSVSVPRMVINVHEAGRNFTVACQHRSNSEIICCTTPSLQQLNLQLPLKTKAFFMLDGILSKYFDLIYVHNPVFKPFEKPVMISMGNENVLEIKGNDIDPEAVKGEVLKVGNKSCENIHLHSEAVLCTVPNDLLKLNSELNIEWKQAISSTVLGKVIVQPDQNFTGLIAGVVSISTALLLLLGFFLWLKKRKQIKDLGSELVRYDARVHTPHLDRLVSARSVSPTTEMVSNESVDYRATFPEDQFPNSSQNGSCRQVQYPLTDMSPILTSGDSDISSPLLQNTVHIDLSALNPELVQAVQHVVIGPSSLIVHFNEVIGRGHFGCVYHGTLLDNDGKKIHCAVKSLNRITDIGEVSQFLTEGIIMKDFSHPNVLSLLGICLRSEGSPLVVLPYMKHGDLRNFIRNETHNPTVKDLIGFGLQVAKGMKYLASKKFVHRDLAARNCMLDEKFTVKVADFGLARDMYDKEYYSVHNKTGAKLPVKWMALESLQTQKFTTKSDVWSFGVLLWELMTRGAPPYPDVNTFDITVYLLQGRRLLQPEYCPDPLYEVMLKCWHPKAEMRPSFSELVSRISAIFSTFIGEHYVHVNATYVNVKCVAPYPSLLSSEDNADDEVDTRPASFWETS
Description: Whole cell ELISAs were performed using 3T3 cells that over-express human cMet. […] Briefly, 96-well plates were seeded with 10⁵ cells per well. The plates were centrifuged for 5 minutes at 1600 rpm to pellet the cells. The resulting cell layer was fixed with 0.1% (v/v) glutaraldehyde for 12 minutes at 37 C. […] Peptide-displaying phage also were blocked in the above solution for 1 hour at 37 C. 100 μL of blocked phage was then added to each well and the plates were incubated for 1 hour at room temperature. The plates were washed with PBST. cMet-binding peptide-displaying phage were detected using an HRP-conjugated anti-M13 antibody.
With AGWTWCDLSMMSCIFHGT [573-E07 peptide-displaying phage (SEQ ID NO: 025)] the “WC ELISA (fold over background)” value was 1.37 fold. With AGFWDCGWMMQDCHMHGT [470-C02 peptide-displaying phage (SEQ ID NO: 045)] the “WC ELISA (fold over background)” value was 1.33 fold. For AGSIQCKGPPWFSCAMYGT [325-H05 peptide-displaying phage (SEQ ID NO: 048)], the “WC ELISA (fold over background)” value was 1.47 fold. In the case of AGHFECPKHQYMCDMPGT [465-D04 peptide-displaying phage (SEQ ID NO: 042)], the “WC ELISA (fold over background)” value is reported as 1.23 fold. For GSSHLCNPEFCHFTAP [465-D09 peptide-displaying phage (SEQ ID NO: 003)], the “WC ELISA (fold over background)” value was 1.3 fold. In the case of AGMDFCEGFWFLCIGNAT [571-C11 peptide-displaying phage (SEQ ID NO: 035)], the “WC ELISA (fold over background)” value is reported as 1.23 fold. With GDGFLCRWENGWCEFWDP [545-E08 peptide-displaying phage (SEQ ID NO: 047)] the “WC ELISA (fold over background)” value was 1.3 fold. For GSLIFCPYGECMMYAP [470-E11 peptide-displaying phage (SEQ ID NO: 005)], the “WC ELISA (fold over background)” value was 1.33 fold. For AGPYSCHSESHDCKLMGT [465-C01 peptide-displaying phage (SEQ ID NO: 032)], the “WC ELISA (fold over background)” value was 1.27 fold. With AGNLPCHWNMSVCDHQGT [465-D01 peptide-displaying phage (SEQ ID NO: 034)] the “WC ELISA (fold over background)” value was 1.3 fold. AGIWFCNNEEKSCWAYGT [471-A11 peptide-displaying phage (SEQ ID NO: 040)] was tested, and the “WC ELISA (fold over background)” value was 1.37 fold. In the case of AGETVCYWLNGWFCVDDGT [274-B07 peptide-displaying phage (SEQ ID NO: 073)], the “WC ELISA (fold over background)” value is reported as 1.1 fold. For AGQAVCEWGPFWCQMQGT [470-A02 peptide-displaying phage (SEQ ID NO: 031)], the “WC ELISA (fold over background)” value was 1.3 fold. For AGLLGCWDMPMECTGEGT [465-B11 peptide-displaying phage (SEQ ID NO: 036)], the “WC ELISA (fold over background)” value was 1.27 fold. In the case of AGKYMCEGFEWFCEMWGT [442-E08 peptide-displaying phage (SEQ ID NO: 037)], the “WC ELISA (fold over background)” value is reported as 1.43 fold. AGKTVCQKWESVCSGMGT [465-C11 peptide-displaying phage (SEQ ID NO: 038)] was tested, and the “WC ELISA (fold over background)” value was 1.3 fold.

What follows are binders tested against T1, cMet-Fc fusion protein (extracellular …) (assay: phage ELISA, cMet-Fc vs TRAIL-Fc).
Description: Protein phage ELISAs using peptide-displaying phage isolates from the various selection campaigns were performed to determine specificity of the peptides for cMet versus an unrelated Fc-fusion protein (TRAIL-Fe). Briefly, 384-well plates were coated overnight at 4 C with 0.5 μg/mL of cMet-Fc fusion protein or TRAIL-Fc fusion protein (background). The plates were blocked for 2 hours 37 C with 3% (w/v) BSA in PBS containing 0.05% (v/v) Tween-20 (PBST). The plates were washed with PBST and 100 μL of peptide-displaying phage were added to each well. The plates were incubated for 2 hours at room temperature and washed with PBST. cMet-binding peptide-displaying phage were detected using an HRP-conjugated anti-M13 antibody.
In the case of AGWTWCDLSMMSCIFHGT [573-E07 peptide-displaying phage (SEQ ID NO: 025)], the “Protein ELISA (fold over background)” value is reported as 3.2 fold. In the case of AGFWDCGWMMQDCHMHGT [470-C02 peptide-displaying phage (SEQ ID NO: 045)], the “Protein ELISA (fold over background)” value is reported as 3.9 fold. With AGSIQCKGPPWFSCAMYGT [325-H05 peptide-displaying phage (SEQ ID NO: 048)] the “Protein ELISA (fold over background)” value was 15.9 fold. In the case of AGHFECPKHQYMCDMPGT [465-D04 peptide-displaying phage (SEQ ID NO: 042)], the “Protein ELISA (fold over background)” value is reported as 3.1 fold. In the case of GSSHLCNPEFCHFTAP [465-D09 peptide-displaying phage (SEQ ID NO: 003)], the “Protein ELISA (fold over background)” value is reported as 3.2 fold. For AGMDFCEGFWFLCIGNAT [571-C11 peptide-displaying phage (SEQ ID NO: 035)], the “Protein ELISA (fold over background)” value was 3.5 fold. With GDGFLCRWENGWCEFWDP [545-E08 peptide-displaying phage (SEQ ID NO: 047)] the “Protein ELISA (fold over background)” value was 4.7 fold. In the case of GSLIFCPYGECMMYAP [470-E11 peptide-displaying phage (SEQ ID NO: 005)], the “Protein ELISA (fold over background)” value is reported as 3.5 fold. With AGPYSCHSESHDCKLMGT [465-C01 peptide-displaying phage (SEQ ID NO: 032)] the “Protein ELISA (fold over background)” value was 3.2 fold. In the case of AGNLPCHWNMSVCDHQGT [465-D01 peptide-displaying phage (SEQ ID NO: 034)], the “Protein ELISA (fold over background)” value is reported as 3.3 fold. For AGIWFCNNEEKSCWAYGT [471-A11 peptide-displaying phage (SEQ ID NO: 040)], the “Protein ELISA (fold over background)” value was 3 fold. For AGETVCYWLNGWFCVDDGT [274-B07 peptide-displaying phage (SEQ ID NO: 073)], the “Protein ELISA (fold over background)” value was 7.8 fold. AGQAVCEWGPFWCQMQGT [470-A02 peptide-displaying phage (SEQ ID NO: 031)] was tested, and the “Protein ELISA (fold over background)” value was 3.2 fold. With AGLLGCWDMPMECTGEGT [465-B11 peptide-displaying phage (SEQ ID NO: 036)] the “Protein ELISA (fold over background)” value was 3.6 fold. AGKYMCEGFEWFCEMWGT [442-E08 peptide-displaying phage (SEQ ID NO: 037)] was tested, and the “Protein ELISA (fold over background)” value was 4.1 fold. In the case of AGKTVCQKWESVCSGMGT [465-C11 peptide-displaying phage (SEQ ID NO: 038)], the “Protein ELISA (fold over background)” value is reported as 3.1 fold.
